Experimental data from US20220411514A1, “ANTI-GAL3 ANTIBODIES AND METHODS OF USE FOR INSULIN RESISTANCE” (TrueBinding, Inc., priority 2021, published 2022).
Residue numbers refer to the chain shown, from its start.

B1: 20D11.2C6 (antibody, V domains shown)
VH: EVQLQQSGPELVKPGASVKISCKASGYTFTDFYINWVKQSHGKSLEWIGDINPKNGGINYNPKFKIKATLTVDKSSSTSYMDLRGLTSEDSAVYYCTSGYGFPYWGQGTLVTVSA
VL: DIQMNQSPSSLSASLGDTITITCRASQNIYIWLSWYQQKPGNIPKLLIYKASNLHTGVPSRFSGSGSGTDFTLTISTLQPEDIATYFCLQGQSYPLTFGAGTKLEMKR
B2: 6H6.2D6 (antibody, V domains shown)
VH: QIQLVQSGPELKKPGETVKISCKASGYTFTTYGMSWVKQAPGKGLKWMAWINTYSGVPTYADDFKGRFAFSLETSASTAYLQINNLTNEDTATYFCARGPYAMDYWGQGTSVTVSS
VL: DIQMTQTTSSLSASLGDRVTISCSASQGISNYLNWYQQKPDGTVKLLIYYTSSLHSGVPSRFSGSGSGTDYSLTISNLEPEDIATYYCQQYSELPYTFGSGTKLEIKR
B3: 2D10.2B2 (antibody, V domains shown)
VH: QVQLQQSGPELVKPGASVKISCKASGYTFTDYYINWVKQRPGQGLEWIGWIYPGSNDTKYNEKFKGKATLTVDTSSSTAYMQLGSLTSEDSAVYFCANYFGCSGWFFDVWGTGTTVTVSS
VL: DIVMTQAAFSNPVTLGTSASISCRSSKSLLHSDGITYLYWYLQRPGQSPQLLIYRMSNLASGVPDRFSGSGSGTDFTLRISRVEAEDVGVYYCAQMIEFPLTFGAGTILELKR
B4: 4A11.2B5 (antibody, V domains shown)
VH: QVQLQQSGPELVKPGASVKISCKASGYSFTNYYIHWVKQRPGQGLEWIGWIYPGSGNTNYNEKFKGKATLTADTSSSTTNMQLSSLTSEDSAVYYCSTAPGGFDVWGSGTTVTVSS
VL: B3 VL with I97L, I108K

Each binder was assayed against Human Galectin-3 protein (Acro Biosystems, GA3-H5129) (human) (UniProt P17931) (assay: ELISA, INSR binding to coated Gal3 with 3 ug/mL antibody).
Sequence of Human Galectin-3 protein (Acro Biosystems, GA3-H5129) (human) (P17931 2-250): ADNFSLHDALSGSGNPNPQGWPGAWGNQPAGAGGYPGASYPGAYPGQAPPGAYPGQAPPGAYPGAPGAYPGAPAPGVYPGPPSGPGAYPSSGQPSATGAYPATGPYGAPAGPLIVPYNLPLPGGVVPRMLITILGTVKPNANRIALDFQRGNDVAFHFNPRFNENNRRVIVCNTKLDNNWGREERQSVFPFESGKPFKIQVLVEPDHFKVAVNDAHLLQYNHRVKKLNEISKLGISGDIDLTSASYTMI

| Gal3-INSR binding left, % of unblocked sample | Binder |
| --- | --- |
| < 5% | B1 |
| < 5% | B2 |
| < 5% | B3 |
| < 5% | B4 |
